Four molecules from patent US10954275 can be followed below.

Assay [1] has as its target AlexaFluor 647-conjugated human IgG (Jackson Immuno Research) (human). The assay can be described thus: flow cytometry, IgG titration on yeast-displayed PrG, pH 8.2 against pH 5.6.
Assay [2] has the same target. The assay can be described thus: flow cytometry, titration of AlexaFluor 647 human IgG on yeast-displayed PrG, pH 5.6.
For assay [3] the target is unchanged. The assay can be described thus: flow cytometry on yeast-displayed PrG, ~200 nM IgG, pH 5.6.
For assay [4] the target is unchanged. In words: flow cytometry on yeast-displayed PrG with labelled human IgG at pH 5.6 and pH 8.2 (FIG. 6).
For assay [5] the target is unchanged. The assay can be described thus: flow cytometry, titration of AlexaFluor 647 human IgG on yeast-displayed PrG, pH 8.2.
Assay [6] shares this target. In words: flow cytometry on yeast-displayed PrG, ~200 nM IgG, pH 8.2.
For assay [7] the target is unchanged. The assay can be described thus: flow cytometry on yeast-displayed PrG with labelled human IgG (FIG. 6), against WT PrG.

B1: Protein G EHHE C2 domain (PrG-EHHE; A24E, K28H, V29H, N35E), displayed on the yeast cell surface (designed binder, not shown: large carriers)
chain: TTYKLVINGKTLKGETTTEAVDAETAEHHFKQYAEDNGVDGEWTYDDATKTFTVTE
On to B1, for which the fold change in binding constant, pH 5.6 to pH 8.2 in assay [1] is 40 fold. Besides, the dissociation constant (Kd) in assay [2] worked out at 27 nM; in assay [5], 1170 nM. In addition, the Percent IgG bound at IgG concentration of ~200 nM in assay [3] was found to be 80%; in assay [6], 10%. In addition, the fold increase of the pH dependent switch in assay [4] was greater than 2 fold.

B2: Protein G EHHD C2 domain (PrG-EHHD; A24E, K28H, V29H, N35D), displayed on the yeast cell surface (designed binder, not shown: large carriers)
chain: TTYKLVINGKTLKGETTTEAVDAETAEHHFKQYADDNGVDGEWTYDDATKTFTVTE
For the molecule B2, the fold change in binding constant, pH 5.6 to pH 8.2 in assay [1] worked out at 20 fold. In addition, the Kd in assay [2] came out at 96 nM; in assay [5], 1780 nM. Besides, the figures for the Percent IgG bound at IgG concentration of ~200 nM in assay [3] and in assay [6] were 65% and 7%, respectively.

B3: Protein G EHH C2 domain (PrG-EHH; A24E, K28H, V29H), displayed on the yeast cell surface (designed binder, not shown: large carriers)
chain: TTYKLVINGKTLKGETTTEAVDAETAEHHFKQYANDNGVDGEWTYDDATKTFTVTE
In assay [7], B3 came in with a fold increase of IgG binding affinity greater than 4 fold.

B4: Protein G ERH C2 domain (PrG-ERH; A24E, K28R, V29H), displayed on the yeast cell surface (designed binder, not shown: large carriers)
chain: TTYKLVINGKTLKGETTTEAVDAETAERHFKQYANDNGVDGEWTYDDATKTFTVTE
B4 displayed a fold increase of IgG binding affinity in assay [7] greater than 4 fold.
